Starred links: 1 amine or outer side, 2 acyl side, 3 side chain; linkers in the order of their positions; H or OH if unused. Non-standard residues stand in square brackets, D forms with d. F4bcpA = 3-[4-[(2S)-2-amino-2-carboxy-ethyl]phenyl]bicyclo[1.1.1]pentane-1-carboxylic acid, O=C([C@H](Cc1ccc(C23CC(C(=O)[*:3])(C2)C3)cc1)N[*:1])[*:2]; 3Pal4CO2H = 5-[(2S)-2-amino-2-carboxy-ethyl]pyridine-2-carboxylic acid, O=C([C@H](Cc1ccc(C(=O)[*:3])nc1)N[*:1])[*:2]; TyrEtNAc = (2S)-3-[4-(2-acetamidoethoxy)phenyl]-2-amino-propanoic acid, CC(=O)NCCOc1ccc(C[C@H](N[*:1])C(=O)[*:2])cc1; Phe(4-(5-CO2H-2-pyrimidyl)) = N[C@@H](Cc1ccc(-c2ncc(C(=O)O)cn2)cc1)C(=O)O; dPro(4R-(4-pyridylmethyl)) = O=C(O)[C@H]1C[C@@H](Cc2ccncc2)CN1; Ala(piperidin-4-yl) = O=C([C@H](CC1CCN([*:3])CC1)N[*:1])[*:2]; Trp(βS-Me,4-F) = C[C@@H](c1c[nH]c2cccc(F)c12)[C@H](N)C(=O)O; Bip(4'-COOH) = N[C@@H](Cc1ccc(-c2ccc(C(=O)O)cc2)cc1)C(=O)O; Ala(1-bicyclo(1.1.1)pentyl) = N[C@@H](CC12CC(C1)C2)C(=O)O; dPro(4R-Bzl(4-F)) = O=C(O)[C@H]1C[C@@H](Cc2ccc(F)cc2)CN1; Ala(morpholin-4-yl) = N[C@@H](CN1CCOCC1)C(=O)O; Ala(piperazin-1-yl) = N[C@@H](CN1CCNCC1)C(=O)O; Ala(pyrimidin-5-yl) = N[C@@H](Cc1cncnc1)C(=O)O; Phe(4-COOH) = N[C@@H](Cc1ccc(C(=O)O)cc1)C(=O)O; Pro(cis-4-F) = O=C(O)[C@@H]1C[C@H](F)CN1; cisHyp = O=C(O)[C@@H]1C[C@H](O)CN1; d(αMeD) = C[C@@](N)(CC(=O)O)C(=O)O; 4Pal = N[C@@H](Cc1ccncc1)C(=O)O; αMeS = C[C@](N)(CO)C(=O)O; Dab = NCC[C@H](N)C(=O)O; Dap = NC[C@H](N)C(=O)O; Aib = CC(C)(N)C(=O)O
These binders were tested against Recombinant human IL-1β (BioLegend 579404) (human, UniProt P01584 117-269) (assay: cell-based or functional assay).

MRC5 IC50	Binder
0.029 nM	cyclo([Bip(4'-COOH)][4Pal][Phe(4-COOH)]G[Pro(cis-4-F)][Trp(βS-Me,4-F)][Aib]EW[Aib][Ala(piperidin-4-yl)]QSG[dPro(4R-Bzl(4-F))]) (ring closure inferred) [SEQ ID NO: 121]
0.013 nM	cyclo([Bip(4'-COOH)][4Pal][Phe(4-COOH)]G[cisHyp][Trp(βS-Me,4-F)][Aib]SW[Aib][Ala(pyrimidin-5-yl)]Q[Dab]G[dPro(4R-Bzl(4-F))]) (ring closure inferred; not fully specified (bridges); printed as Bip4CO2H-4Pal-Phe4COOH-G-Proc4OH-SbMeW4F-Aib-S-W-Aib-PyrimAla-Q-Dab-G-dProc4Bn4F) [SEQ ID NO: 127]
0.022 nM	cyclo([Bip(4'-COOH)][4Pal][Phe(4-COOH)]G[Pro(cis-4-F)][Trp(βS-Me,4-F)][Aib]EW[Aib][Ala(morpholin-4-yl)]Q[Dab]G[dPro(4R-Bzl(4-F))]) (ring closure inferred) [SEQ ID NO: 126]
0.017 nM	cyclo([Bip(4'-COOH)][4Pal][Phe(4-COOH)]G[Pro(cis-4-F)][Trp(βS-Me,4-F)][Aib]EW[Aib][Ala(morpholin-4-yl)]Q[Dab]G[dPro(4R-Bzl(4-F))]) (ring closure inferred) [SEQ ID NO: 123]
0.019 nM	cyclo([Bip(4'-COOH)][4Pal][Phe(4-COOH)]G[Pro(cis-4-F)][Trp(βS-Me,4-F)][Aib]EW[Aib][Ala(piperazin-1-yl)]QSG[dPro(4R-Bzl(4-F))]) (ring closure inferred) [SEQ ID NO: 122]
0.039 nM	cyclo([Bip(4'-COOH)][4Pal][Phe(4-COOH)]G[Pro(cis-4-F)][Trp(βS-Me,4-F)][Aib]SW[αMeDab][Ala(pyrimidin-5-yl)]Q[Dab]G[dPro(4R-Bzl(4-F))]) (ring closure inferred; not fully specified (bridges); printed as Bip4CO2H-4Pal-Phe4COOH-G-Proc4F-SbMeW4F-Aib-S-W-aMeDab-PyrimAla-Q-Dab-G-dProc4Bn4F) [SEQ ID NO: 130]
0.018 nM	cyclo([Bip(4'-COOH)][4Pal][Phe(4-COOH)]G[Pro(cis-4-F)][Trp(βS-Me,4-F)][Aib]EW[Aib][Ala(morpholin-4-yl)]QSG[dPro(4R-Bzl(4-F))]) (ring closure inferred) [SEQ ID NO: 124]
0.019 nM	cyclo([Bip(4'-COOH)][4Pal][Phe(4-COOH)]G[Pro(cis-4-F)][Trp(βS-Me,4-F)][αMeDab]SW[Aib][Ala(pyrimidin-5-yl)]Q[Dab]G[dPro(4R-Bzl(4-F))]) (ring closure inferred; not fully specified (bridges); printed as Bip4CO2H-4Pal-Phe4COOH-G-Proc4F-SbMeW4F-aMeDab-S-W-Aib-PyrimAla-Q-Dab-G-dProc4Bn4F) [SEQ ID NO: 129]
0.009 nM	cyclo([Bip(4'-COOH)][4Pal][Phe(4-COOH)]G[Pro(cis-4-F)][Trp(βS-Me,4-F)][Aib]SW[d(αMeD)][Ala(pyrimidin-5-yl)]Q[Dab]G[dPro(4R-Bzl(4-F))]) (ring closure inferred; not fully specified (bridges); printed as Bip4CO2H-4Pal-Phe4COOH-G-Proc4F-SbMeW4F-Aib-S-W-daMeD-PyrimAla-Q-Dab-G-dProc4Bn4F) [SEQ ID NO: 128]
0.041 nM	cyclo([Bip(4'-COOH)][4Pal][Phe(4-COOH)]G[Pro(cis-4-F)][Trp(βS-Me,4-F)][Aib]EW[Aib][Ala(morpholin-4-yl)]QSG[dPro(4R-Bzl(4-F))]) (ring closure inferred) [SEQ ID NO: 125]

Target: Recombinant human IL-1β (BioLegend 579404) (human, UniProt P01584 117-269)
Experiment: cell-based or functional assay
Remark: another data set of the same source

MRC5 IC50	Binder
0.031 nM	cyclo([F4bcpA][Ala(1-bicyclo(1.1.1)pentyl)][Phe(4-COOH)]G[Pro(cis-4-F)][Trp(βS-Me,4-F)][Aib]EW[Aib][Ala(pyrimidin-5-yl)]Q[Dab]G[dPro(4R-Bzl(4-F))]) (SMILES C[C@@H](c1c[nH]c2cccc(F)c12)[C@@H]1NC(=O)[C@@H]2C[C@H](F)CN2C(=O)CNC(=O)[C@H](Cc2ccc(C(=O)O)cc2)NC(=O)[C@H](CC23CC(C2)C3)NC(=O)[C@H](Cc2ccc(C34CC(C(=O)O)(C3)C4)cc2)NC(=O)[C@H]2C[C@@H](Cc3ccc(F)cc3)CN2C(=O)CNC(=O)[C@H](CCN)NC(=O)[C@H](CCC(N)=O)NC(=O)[C@H](Cc2cncnc2)NC(=O)C(C)(C)NC(=O)[C@H](Cc2c[nH]c3ccccc23)NC(=O)[C@H](CCC(=O)O)NC(=O)C(C)(C)NC1=O) [SEQ ID NO: 99]
0.096 nM	cyclo([Phe(4-(5-CO2H-2-pyrimidyl))][Ala(1-bicyclo(1.1.1)pentyl)][Phe(4-COOH)]G[Pro(cis-4-F)][Trp(βS-Me,4-F)][Aib]AW[Aib]SQ[Dab]G[dPro(4R-Bzl(4-F))]) (SMILES C[C@@H]1NC(=O)C(C)(C)NC(=O)[C@H]([C@@H](C)c2c[nH]c3cccc(F)c23)NC(=O)[C@@H]2C[C@H](F)CN2C(=O)CNC(=O)[C@H](Cc2ccc(C(=O)O)cc2)NC(=O)[C@H](CC23CC(C2)C3)NC(=O)[C@H](Cc2ccc(-c3ncc(C(=O)O)cn3)cc2)NC(=O)[C@H]2C[C@@H](Cc3ccc(F)cc3)CN2C(=O)CNC(=O)[C@H](CCN)NC(=O)[C@H](CCC(N)=O)NC(=O)[C@H](CO)NC(=O)C(C)(C)NC(=O)[C@H](Cc2c[nH]c3ccccc23)NC1=O) [SEQ ID NO: 94]
0.054 nM	cyclo([TyrEtNAc][4Pal][Phe(4-COOH)]G[Pro(cis-4-F)][Trp(βS-Me,4-F)][Aib]EW[Aib][4Pal]Q[Dab]G[dPro(4R-Bzl(4-F))]) (SMILES CC(=O)NCCOc1ccc(C[C@@H]2NC(=O)[C@H]3C[C@@H](Cc4ccc(F)cc4)CN3C(=O)CNC(=O)[C@H](CCN)NC(=O)[C@H](CCC(N)=O)NC(=O)[C@H](Cc3ccncc3)NC(=O)C(C)(C)NC(=O)[C@H](Cc3c[nH]c4ccccc34)NC(=O)[C@H](CCC(=O)O)NC(=O)C(C)(C)NC(=O)[C@H]([C@@H](C)c3c[nH]c4cccc(F)c34)NC(=O)[C@@H]3C[C@H](F)CN3C(=O)CNC(=O)[C@H](Cc3ccc(C(=O)O)cc3)NC(=O)[C@H](Cc3ccncc3)NC2=O)cc1) [SEQ ID NO: 95]
0.059 nM	cyclo([Bip(4'-COOH)][Ala(1-bicyclo(1.1.1)pentyl)][Phe(4-COOH)]G[Pro(cis-4-F)][Trp(βS-Me,4-F)][Aib]EW[Aib][Dap]Q[Dab]G[dPro(4R-(4-pyridylmethyl))]) (SMILES C[C@@H](c1c[nH]c2cccc(F)c12)[C@@H]1NC(=O)[C@@H]2C[C@H](F)CN2C(=O)CNC(=O)[C@H](Cc2ccc(C(=O)O)cc2)NC(=O)[C@H](CC23CC(C2)C3)NC(=O)[C@H](Cc2ccc(-c3ccc(C(=O)O)cc3)cc2)NC(=O)[C@H]2C[C@@H](Cc3ccncc3)CN2C(=O)CNC(=O)[C@H](CCN)NC(=O)[C@H](CCC(N)=O)NC(=O)[C@H](CN)NC(=O)C(C)(C)NC(=O)[C@H](Cc2c[nH]c3ccccc23)NC(=O)[C@H](CCC(=O)O)NC(=O)C(C)(C)NC1=O) [SEQ ID NO: 93]
0.036 nM	cyclo([Bip(4'-COOH)][Ala(1-bicyclo(1.1.1)pentyl)][Phe(4-COOH)]G[Pro(cis-4-F)][Trp(βS-Me,4-F)][αMeS]SW[Aib]SQ[Dab]G[dPro(4R-Bzl(4-F))]) (SMILES C[C@@H](c1c[nH]c2cccc(F)c12)[C@@H]1NC(=O)[C@@H]2C[C@H](F)CN2C(=O)CNC(=O)[C@H](Cc2ccc(C(=O)O)cc2)NC(=O)[C@H](CC23CC(C2)C3)NC(=O)[C@H](Cc2ccc(-c3ccc(C(=O)O)cc3)cc2)NC(=O)[C@H]2C[C@@H](Cc3ccc(F)cc3)CN2C(=O)CNC(=O)[C@H](CCN)NC(=O)[C@H](CCC(N)=O)NC(=O)[C@H](CO)NC(=O)C(C)(C)NC(=O)[C@H](Cc2c[nH]c3ccccc23)NC(=O)[C@H](CO)NC(=O)[C@](C)(CO)NC1=O) [SEQ ID NO: 97]
0.067 nM	cyclo([Bip(4'-COOH)][Ala(1-bicyclo(1.1.1)pentyl)][Phe(4-COOH)]G[Pro(cis-4-F)][Trp(βS-Me,4-F)][Aib]EW[Aib][Dap]QSG[dPro(4R-(4-pyridylmethyl))]) (SMILES C[C@@H](c1c[nH]c2cccc(F)c12)[C@@H]1NC(=O)[C@@H]2C[C@H](F)CN2C(=O)CNC(=O)[C@H](Cc2ccc(C(=O)O)cc2)NC(=O)[C@H](CC23CC(C2)C3)NC(=O)[C@H](Cc2ccc(-c3ccc(C(=O)O)cc3)cc2)NC(=O)[C@H]2C[C@@H](Cc3ccncc3)CN2C(=O)CNC(=O)[C@H](CO)NC(=O)[C@H](CCC(N)=O)NC(=O)[C@H](CN)NC(=O)C(C)(C)NC(=O)[C@H](Cc2c[nH]c3ccccc23)NC(=O)[C@H](CCC(=O)O)NC(=O)C(C)(C)NC1=O) [SEQ ID NO: 96]
0.058 nM	cyclo([Bip(4'-COOH)][Ala(1-bicyclo(1.1.1)pentyl)][3Pal4CO2H]G[Pro(cis-4-F)][Trp(βS-Me,4-F)][Aib]EW[Aib][Ala(pyrimidin-5-yl)]Q[Dab]G[dPro(4R-Bzl(4-F))]) (SMILES C[C@@H](c1c[nH]c2cccc(F)c12)[C@@H]1NC(=O)[C@@H]2C[C@H](F)CN2C(=O)CNC(=O)[C@H](Cc2ccc(C(=O)O)nc2)NC(=O)[C@H](CC23CC(C2)C3)NC(=O)[C@H](Cc2ccc(-c3ccc(C(=O)O)cc3)cc2)NC(=O)[C@H]2C[C@@H](Cc3ccc(F)cc3)CN2C(=O)CNC(=O)[C@H](CCN)NC(=O)[C@H](CCC(N)=O)NC(=O)[C@H](Cc2cncnc2)NC(=O)C(C)(C)NC(=O)[C@H](Cc2c[nH]c3ccccc23)NC(=O)[C@H](CCC(=O)O)NC(=O)C(C)(C)NC1=O) [SEQ ID NO: 98]

— patent publication US20260242419A1, “A CYCLIC PEPTIDE FOR TRAPPING INTERLEUKIN-1 BETA” (Merck Sharp & Dohme LLC, priority 2023, published 2026)
